± gives the uncertainty stated by the source.
Experiment: self-splicing fitness, log relative to wild type (ln ratio); higher = more splicing; Tetrahymena group I intron in knt gene, E. coli kanamycin selection, DiMSum; sequences stand for … in CUCUCU…GGAGGGAAAAGUUAUCAGGCAUGCACCUGGUAGCUAGUCUUUAAACCAAUAGAUUGCAUCGGUUUAAAAGGCAAGACCGUCAAAUUGCGGGAAAGGGGUCAACAGCCGUUCAGUACCAAGUCUCAGGGGAAACUUUGAGAUGGCCUUGCAAAGGGUAUGGUAAUAAGCUGACGGACAUGGUCCUAACCACGCAGCCAAGUCCUAAGUCAACAGAUCUUCUGUUGAUAUGGAUGCAGUUCACAGACUAAAUGUCGGUCGGGGAAGAUGUAUUCUUCUCAUAAGAUAUAGUCGGACCUCUCCUUAAUGGGAGCUAGCGGAUGAAGUGAUGCAACACUGGAGCCGCUGGGAACUAAUUUGUAUGCGAAAGUAUAUUGAUUAGUUUUGGAGUACUCGUGGUCG
In short: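 The eight P1ex-region nucleotides of an intron in the knt kanamycin-resistance gene on pET-22b(+) were all randomised and the library put into E. coli BL21(DE3). Six replicate transformations were grown overnight at 37°C or 30°C on LB agar with or without 25 μg/mL kanamycin, together with 100 μg/mL carbenicillin, 50 μM IPTG and 0.2% rhamnose. Colonies were pooled and amplicon-sequenced on an Illumina HiSeq 2500. Fitness from DiMSum is the error-weighted combination of wild-type-normalised replicate fold changes, kanamycin over none.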

Row | Sequence | self-splicing fitness (ln) (30 °C) | self-splicing fitness (ln) (37 °C)
1 | ACGGAGCAAUAUUACGACUU | -2.69 ± 0.1 | -1.37 ± 0.11
2 | AAGUAGCAAUAUUACGACCU | 0.0875 ± 0.13 | -0.703 ± 0.17
3 | AAUGAGCAAUAUUACGAGCG | -3.49 ± 0.38 | -1.56 ± 0.3
4 | GGUUAGCAAUAUUACGCUCU | -2.24 ± 0.18 | -0.596 ± 0.17
5 | UCCCAGCAAUAUUACGACCC | -2.89 ± 0.31 | -2.44 ± 0.35
6 | CAGCAGCAAUAUUACGACUC | -0.922 ± 0.091 | -0.00599 ± 0.14
7 | UAACAGCAAUAUUACGAUUC | -1.68 ± 0.1 | -1.01 ± 0.12
8 | UCUGAGCAAUAUUACGGGGU | -4.62 ± 0.32 | -2.28 ± 0.25
9 | GGAAAGCAAUAUUACGAGGG | -3.74 ± 0.17 | -2.54 ± 0.16
10 | CCUGAGCAAUAUUACGAUGC | -4.16 ± 0.28 | -2.75 ± 0.21
11 | CUAUAGCAAUAUUACGUUAG | -2.54 ± 0.16 | -2.67 ± 0.19
12 | GCAUAGCAAUAUUACGCUAA | -2.72 ± 0.27 | -2.49 ± 0.22
13 | ACAUAGCAAUAUUACGUCGU | -2.92 ± 0.11 | -2.33 ± 0.13
14 | UUGUAGCAAUAUUACGGUUU | -3.53 ± 0.24 | -1.79 ± 0.17
15 | CAAUAGCAAUAUUACGUAGC | – | -2.05 ± 0.3
16 | CGAUAGCAAUAUUACGCAGC | -4.01 ± 0.36 | -1.34 ± 0.24
17 | CUGCAGCAAUAUUACGAGCG | -0.799 ± 0.093 | 0.667 ± 0.11
18 | CAAGAGCAAUAUUACGUUCA | -2.46 ± 0.17 | -2.09 ± 0.19
19 | ACGAAGCAAUAUUACGACAU | -0.681 ± 0.011 | -0.109 ± 0.032

Row | Sequence | self-splicing fitness (ln) (30 °C) | self-splicing fitness (ln) (37 °C)
20 | AUCAAGCAAUAUUACGCGGA | -2.07 ± 0.1 | -1.94 ± 0.088
21 | AACCAGCAAUAUUACGCACU | 0.473 ± 0.074 | 0.0602 ± 0.078
22 | ACGGAGCAAUAUUACGAACG | -2.54 ± 0.16 | -0.693 ± 0.16
23 | GUUUAGCAAUAUUACGGAUU | -1.48 ± 0.097 | -0.737 ± 0.12
24 | UACGAGCAAUAUUACGUCAC | -2.59 ± 0.25 | -2.09 ± 0.32
25 | UUCCAGCAAUAUUACGUUGG | -3.19 ± 0.21 | -2.53 ± 0.21
26 | CCUGAGCAAUAUUACGGACA | -3.69 ± 0.28 | -1.64 ± 0.18
27 | UUACAGCAAUAUUACGCGUU | -3.05 ± 0.14 | -1.95 ± 0.15
28 | UCCGAGCAAUAUUACGCCUC | – | -1.34 ± 0.33
29 | GAAAAGCAAUAUUACGGUAU | -2.38 ± 0.11 | -1.69 ± 0.14
30 | ACGAAGCAAUAUUACGACGA | -1.04 ± 0.097 | -0.181 ± 0.12
31 | UUUAAGCAAUAUUACGUGCA | -1.06 ± 0.12 | -0.0552 ± 0.15
32 | UGUUAGCAAUAUUACGAAGG | -1.88 ± 0.16 | -2.16 ± 0.27
33 | UUGGAGCAAUAUUACGGGGA | -3.14 ± 0.28 | -2.72 ± 0.31
34 | GCAAAGCAAUAUUACGAGAG | -2.7 ± 0.095 | -1.89 ± 0.12
35 | CCGGAGCAAUAUUACGGCAA | -1.63 ± 0.22 | -2.48 ± 0.31
36 | CGGCAGCAAUAUUACGAAUG | 0.0635 ± 0.086 | -0.00804 ± 0.099
37 | UCAUAGCAAUAUUACGGCCC | – | -1.11 ± 0.43
38 | AGGUAGCAAUAUUACGUUCU | -0.768 ± 0.014 | -0.545 ± 0.033
